The data set “crystal structure” deals with the molecule itself. As to the kind of experiment: crystal structure.
Data set [1] deals with purified phage T4 heads (bacteriophage T4) (UniProt P13334). Kind of data set: co-sedimentation.

The stoichiometry N is a count of units in the complex or per binding partner.

purified phage T4 heads (bacteriophage T4), sequence (P13334 whole entry, looked up): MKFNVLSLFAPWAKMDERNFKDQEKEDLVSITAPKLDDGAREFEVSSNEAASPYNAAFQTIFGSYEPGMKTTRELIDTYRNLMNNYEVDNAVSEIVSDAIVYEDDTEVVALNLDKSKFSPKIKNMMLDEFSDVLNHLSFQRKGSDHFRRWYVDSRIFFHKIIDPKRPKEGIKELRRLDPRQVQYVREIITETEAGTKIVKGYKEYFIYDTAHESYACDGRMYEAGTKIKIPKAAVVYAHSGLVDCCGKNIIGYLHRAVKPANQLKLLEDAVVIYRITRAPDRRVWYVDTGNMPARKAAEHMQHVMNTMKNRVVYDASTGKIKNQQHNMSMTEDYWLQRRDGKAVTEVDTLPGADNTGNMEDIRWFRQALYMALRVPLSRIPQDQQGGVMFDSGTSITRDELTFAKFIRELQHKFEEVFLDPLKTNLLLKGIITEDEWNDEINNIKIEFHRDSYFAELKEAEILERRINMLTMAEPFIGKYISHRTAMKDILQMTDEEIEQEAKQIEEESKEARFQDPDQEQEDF

B1: gp15 C-terminal truncation mutant (residues 1-261) (domain or fragment, bacteriophage T4, UniProt P11112 1-261, looked up)
chain: MFGYFYNSSFRRYATLMGDLFSNIQIKRQLESGDKFIRVPITYASKEHFMMKLNKWTSINSQEDVAKVETILPRINLHLVDFSYNAPFKTNILNQNLLQKGATSVVSQYNPSPIKMIYELSIFTRYEDDMFQIVEQILPYFQPHFNTTMYEQFGNDIPFKRDIKIVLMSAAIDEAIDGDNLSRRRIEWSLTFEVNGWMYPPVDDAEGLIRTTYTDFHANTRDLPDGEGVFESVDSEVVPRDIDPEDWDGTVKQTFTSNVNR
Turning to B1, the “stoichiometry N” value in the data set “crystal structure” was found to be 6.

B2: bacteriophage T4 gp14, purified (natural protein)
chain: MATYDKNLFAKLENRTGYSQTNETEILNPYVNFNHYKNSQILADVLVAESIQMRGVECYYVPREYVSPDLIFGEDLKNKFTKAWKFAAYLNSFEGYEGAKSFFSNFGMQVQDEVTLSINPNLFKHQVNGKEPKEGDLIYFPMDNSLFEINWVEPYDPFYQLGQNAIRKITAGKFIYSGEEINPVLQKNEGINIPEFSELELNAVRNLNGIHDINIDQYAEVDQINSEAKEYVEPYVVVNNRGKSFESSPFDNDFMD
B2 had a stoichiometry N (copies per head) in data set [1] of 6.

(Values after paper PMC3746776 (Journal of molecular biology, 2013).)
